Here are results for 5 molecules from publication PMC5484120 (Marine Drugs, 2017).

Where no end group is shown, it is not given here. The star is where a group is joined. Cam = NC(=O)C*

In assay [1] the target is rodent α1β1εδ nicotinic acetylcholine receptor (rat α1, β1, δ; mouse ε) (rat | mouse) (UniProt P25108).
Assay [2] deals with human α9α10 nicotinic acetylcholine receptor (human) (UniProt Q9UGM1).
For assay [3], the target named is O-conotoxin GeXXVIIA, native form (disulfide-linked homodimer) (Conus generalis). Briefly: mass spectrometry before and after reduction with DTT.
For assay [4], the system named is rat models of neuropathic pain. The settings on record: in vivo; cited from earlier work.
Assay [5] deals with α9α10 nAChR. To be noted: cited from earlier work.
For assay [6], the system named is N-type Ca^2+ channel. The settings on record: cited from earlier work.

As to “GeXXVIIA-L-Nter (N-terminal fragment of GeXXVIIA-L after Asp-N digestion) (peptide)”, the figures for the IC50 of inhibition of ACh-evoked current of the receptor in Xenopus oocytes in assay [1] and in assay [2] were 2190 nM and 222 nM, respectively.

For the molecule “O-conotoxin GeXXVIIA, native form (disulfide-linked homodimer) (peptide)”, the stoichiometry N (as a rule, a count of units in the complex or per binding partner) in assay [3] was determined as 2.

With Vc1.1, the “pain relief in rat models of neuropathic pain” value in assay [4] is given as “long lasting relief in rat models of neuropathic pain”. Besides, the IC50 – broadly, the point on the concentration scale where inhibition reaches its midpoint – in assay [5] was 19 nM.

With ω-conotoxin MVIIA, the “N-type Ca2+ channel inhibition (in words)” value in assay [6] is “selective N-type Ca^2+ channel inhibitor”.

B1: GeXXVIIA-L (disulfide-free linear peptide of GeXXVIIA, Cys residues alkylated with iodoacetamide) (peptide)
chain: ALMSTGTNYRLLKTC(Cam)RGSGRYC(Cam)RSPYDC(Cam)RRRYC(Cam)RRISDAC(Cam)V
B1: the IC50 of inhibition of ACh-evoked current of the receptor in Xenopus oocytes in assay [1] was 774 nM.
